In US9289468B2, “Fusion protein comprising circularly permuted form of trail/Apo2L, coding gene and use thereof” (Beijing Sunbio Biotech Co. Ltd., priority 2011, dated 2016):

Tested on: NCI-H460 cells
Assay: Assay of killing activity on lung cancer cell line (crystal violet, IC50)
Type: cell-based, human
Settings: for Ratio of IC50 of mutants to IC50 of CPT (H460 cells): 20-24 hours, crystal violet; for killing activity compared to that of CPT: based on IC50
Procedure: The NCI-H460 cells (ATCC) were cultured in flasks until logarithmic growth phase, digested with 0.25% trypsin (Amresco), collected by centrifugation (1000 rpm, 5 min), resuspended in RPMI1640 medium (Invitrogen) containing 3% fetal bovine serum (FBS), counted and adjusted to 1.5×10^5/ml cell suspension, added into 96-well culture plates (Nunc) at 100 μl/well, and incubated at 37° C. in 5% CO2 incubator overnight. The sample to be tested was diluted to a certain concentration with 1640 medium containing 3% FBS, and further diluted at 4-fold dilutions (8 dilutions). The supernatant in the culture plate was discarded, and serial dilutions of the sample to be tested was added into the plate at 100 μl/well with a negative control and blank control set aside, incubated at 37° C. under 5% CO2 for 20-24 hours. Following examination under microscope, the supernatant was discarded, each well was added 50 μl 0.05% crystal violet solution (50 mg crystal violet was dissolved in 20 ml anhydrous ethanol, and water was added to the volume of 100 ml, then stored at room temperature) and stained for 3-5 minutes. The crystal violet was carefully washed with flowing water, the remaining water was removed by spin-drying, a destaining solution (50 ml distilled water, 50 ml anhydrous ethanol, and 0.1 ml glacial acetic acid were thoroughly mixed and stored at room temperature) was added at 100 μl/well, then the reading at OD570 was measured on a microplate reader (Bio-Rad 680) (reference wavelength of 630 nm). The inhibitory concentration 50 (IC50) of each sample was calculated by a four-parameter Logistic fitting using Sigmaplot10.0 software. The IC50 for CPT and each mutant of NCPT-1, NCPT-2, and NCPT-3 were calculated, and the activity change of each mutant was represented as a ratio of the IC50 of each mutant to that of CPT (Table 1).

| Molecule | Ratio of IC50 of mutants to IC50 of CPT (H460 cells) | killing activity compared to that of CPT |
| --- | --- | --- |
| NCPT-1.M8: MG+129-134+NCPT-1, SEQ ID NO: 12 (protein, NCPT-1.M8 polypeptide sequence) MGTRGRSNTLSSPNSKNEKALGRKINSWESSRSGHSFLSNLHLRNGELVIHEKGFYYIYSQTYFRFQEEIKENTKNDKQMVQYIYKYTSYPDPILLMKSARNSCWSKDAEYGLYSIYQGGIFELKENDRIFVSVTNEHLIDMDHEASFFGAFLVGGGGGGRVAAHITGTRGRSNT | 1.5 | significantly decreased compared to that of CPT |
| NCPT-1.M5: MG+His6+NCPT-1 with linker GSGGG, SEQ ID NO: 9 (protein, NCPT-1.M5 polypeptide sequence) MGHHHHHHTLSSPNSKNEKALGRKINSWESSRSGHSFLSNLHLRNGELVIHEKGFYYIYSQTYFRFQEEIKENTKNDKQMVQYIYKYTSYPDPILLMKSARNSCWSKDAEYGLYSIYQGGIFELKENDRIFVSVTNEHLIDMDHEASFFGAFLVGGSGGGRVAAHITGTRGRSNT | 0.15 | significantly higher than that of CPT |
| NCPT-1.M9: MG+Asn6+NCPT-1, SEQ ID NO: 13 (protein, NCPT-1.M9 polypeptide sequence) MGNNNNNNTLSSPNSKNEKALGRKINSWESSRSGHSFLSNLHLRNGELVIHEKGFYYIYSQTYFRFQEEIKENTKNDKQMVQYIYKYTSYPDPILLMKSARNSCWSKDAEYGLYSIYQGGIFELKENDRIFVSVTNEHLIDMDHEASFFGAFLVGGGGGGRVAAHITGTRGRSNT | 3.0 | significantly decreased compared to that of CPT |
| NCPT-1.M3: MG+His3+NCPT-1, SEQ ID NO: 7 (protein, NCPT-1.M3 polypeptide sequence) MGHHHTLSSPNSKNEKALGRKINSWESSRSGHSFLSNLHLRNGELVIHEKGFYYIYSQTYFRFQEEIKENTKNDKQMVQYIYKYTSYPDPILLMKSARNSCWSKDAEYGLYSIYQGGIFELKENDRIFVSVTNEHLIDMDHEASFFGAFLVGGGGGGRVAAHITGTRGRSNT | 0.4 | significantly higher than that of CPT |
| NCPT-1.M10: MG+NCPT-1+aa136-141, SEQ ID NO: 14 (protein, NCPT-1.M10 polypeptide sequence) MGTLSSPNSKNEKALGRKINSWESSRSGHSFLSNLHLRNGELVIHEKGFYYIYSQTYFRFQEEIKENTKNDKQMVQYIYKYTSYPDPILLMKSARNSCWSKDAEYGLYSIYQGGIFELKENDRIFVSVTNEHLIDMDHEASFFGAFLVGGGGGGRVAAHITGTRGRSNTLSSPNS | 1.2 | slightly decreased compared to that of CPT |
| NCPT-1.M2: MG+NCPT-1+His6, SEQ ID NO: 6 (protein, NCPT-1.M2 polypeptide sequence) MGTLSSPNSKNEKALGRKINSWESSRSGHSFLSNLHLRNGELVIHEKGFYYIYSQTYFRFQEEIKENTKNDKQMVQYIYKYTSYPDPILLMKSARNSCWSKDAEYGLYSIYQGGIFELKENDRIFVSVTNEHLIDMDHEASFFGAFLVGGGGGGRVAAHITGTRGRSNTHHHHHH | 0.1 | significantly higher than that of CPT |
| NCPT-1.M4: His6+NCPT-1, SEQ ID NO: 8 (protein, NCPT-1.M4 polypeptide sequence) HHHHHHTLSSPNSKNEKALGRKINSWESSRSGHSFLSNLHLRNGELVIHEKGFYYIYSQTYFRFQEEIKENTKNDKQMVQYIYKYTSYPDPILLMKSARNSCWSKDAEYGLYSIYQGGIFELKENDRIFVSVTNEHLIDMDHEASFFGAFLVGGGGGGRVAAHITGTRGRSNT | 0.12 | significantly higher than that of CPT |
